# Reference: the supplement of paper PMC9170038
# System: MS2 coat protein
# Assay: apparent KD of MS2 coat protein; higher = weaker reporter binding
# Conditions: Eterna round: R107
# Method: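 RNA-MaP round R107: designed RNA switches with theophylline, tryptophan, arginine or FMN aptamers are transcribed on-chip within common flanks. They are titrated with SNAP-549-labelled MS2 coat protein in RNA-MaP buffer (100 mM Tris pH 7.5, 80 mM KCl, 4 mM MgCl2), without ligand or with the indicated ligand. Median apparent KD per design.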
# [1] = input ligand: theophylline 20 uM
# [2] = input ligand: theophylline 2 mM
# [3] = input ligand: tryptophan 2.4 mM
Sequence,apparent KD of MS2 coat protein (input ligand: arginine 13.2 mM) [nM],apparent KD of MS2 coat protein (input ligand: none) [nM],apparent KD of MS2 coat protein [1] [nM],apparent KD of MS2 coat protein [2] [nM],apparent KD of MS2 coat protein [3] [nM]
AGACGAGAAGAGGAUUACCCAUGUACAGAAGGAGCGUCGUUGACGACAGGUAGGUCGCUGAGAACAUGAGGAUCACCCAUGUUGA [Arg A Ex t1],29.9,42.9,53.9,39.8,36
AAUAACAUGAGGAUCACCCAUGUAAAAGAUACCAGAGUGAUGAUCCUCCCUUGGCAGCUUAAAACGCUAUUGAUUACAAUAGCGA [Mat - Same State Theophlline A - Mod of Eli - D4],38.3,,99,,45.3
AAAAGAGGUGGAAGGAGCGGGAGACAUGAGGAUCACCCAUGUGAAGUAACGAAAGGUACAGCCCAGGUAGGUCGCCAUGUCGAAA [qxqamullin],20.6,31.7,73.5,40.4,32.8
GAGCUGAUGUAGAGAUUUUAUUUCUGAGAUACCAGUACAGAAAUGUACCCUUGGCAGCUCAGCUUUACAUGAGGAUCACCCAUGU [Ex Theophylline A 16],16.9,,17.8,,17.6
UGUAUGUGAUUUGAUACCAGACCAGCUGGUGGUGCAUGAGGAUCACCCAUGCAGGUUUGGGUCCCUUGGCAGCAAAUCGCAUACU [SS Theo B #24 Ms17],72.5,119,135,21.6,129
GCAUGUUGGUGGUUUCUGCGAAGGCGGAAUCGAGGACCGGUACGGCCGCCACUCGGCGACAUGAGGAUCACCCAUGUGGUUAGGA [Exclusion - Tryptophan A (Freestyle 9)],42.1,462,220,461,208
UUAAUGGAGCUUUAAUUUACGAUUUCUGAUACCAGUGUUUCAUUUCACCCUUGGCAGCAGUGACAUGAGGAUCACCCAUGUAAUA [JR_Nu_SSTheophyA_Sub022],23.7,,35.5,,26.4
AGAUUCGACACGGCCGCCACUCGAGACGGAUUUCCGAGUGUCGAACAUGAGGAUCACCCAUGUCCGAGGACCGGGUGUUGAGUCU [XTryp B #10],24.3,,42.8,51.1,
AUGUGCAAUACGGAUACCAGCCCGUGUAGAUACAUGAGGAUCACCCAUGUCAAUGUAAAUGGCCCUUGGCAGCCGUUUGGGAGGC [theeternabot_sameState_MS2_Theo_B_35],13.4,,19.9,,19.4
AAUGGUCGUACUGGAAUGGUGAUCCUCAAACGAGGACCGGUACGGCCGCCACUCGAUAACAUGAGGAUCACCCAUGUAAUAAUAA [|T'-M'-Trp-Ms2|_Design13b],26,,67.4,55.2,
GGUACAUGAGGAUCACCCAUGUAUGGGUACCGAGGACCGGUACGGCCGCCACUCGCAGGACAUGAGGAUCACCCAUGUGCAACCG [SSTA DOUBLE!!! :-D #11],61,142,144,184,312
AAUACAGCUACGGCCGCCACUUUAACUUGGUAUGGGUCCUUCACAAACAUGAGGAUCACCCAUGUAAGGACCGGGUAGCCUUGUU [theeternabot_exclusion_MS2_Trp_B_35],21.6,,28.4,24,
GACCUUGCGGGCGCCCGCAAGGUUGCGGAUACCAGCGAGGUCCAUCGCCCUUGGCAGCCGAACAUGAGGAUCACCCAUGUCGGAC [Same State - Theophylline A Attempt #3 (HarryS)],10.3,11.4,18.2,15.8,11.2
AAUGGGCGAGUAGAGCAUAAUUUCCACUCCCGAGGACCGGUACGGCCGCCACUCGUUCGCUCACAUGAGGAUCACCCAUGUGGUC [theeternabot_exclusion_MS2_Trp_A_17],24.7,,32.3,40.3,
UGUAUGGACUGAAGGAGCGGGUAAAUAACUUGAGGAUCACCCAGGUAAAAGGCGAAAGCCACCCAGGUAGGUCGCAGUCCAUACU,23.6,21.1,32.1,29.2,25.5
ACAUGAGGAUCACCCAUGUCUGCCUCGGAUACCAGCGGAAGAAAACGCCCUUGGCAGCCGAACAUGAGGAUCACCCAUGUAGGCU [Same State Theophylline A GF30],28.8,,55.1,,45.2
UUAUAUAUGCGAAGGAGCGGGAAAUAUAUAUAUAUAAUCCUAACAUGAGGAUCACCCAUGUCCCAGGUAGGUCGCGCAUAUAUGG [12.E],74.2,84.4,76.8,95.1,75.7
CAAAAUGCGGCGGCCGCCACUCAGCUCCGUGUGGUUGGUCAUCUUAACAUGAGGAUCACCCAUGUGAGGACCGGGCCAGCGAGUG [theeternabot_exclusion_MS2_Trp_B_38],13.3,,19.6,17,
GCAUCCUAGUCGGCCGCCACUGCAACAUGAGGAUCACCCAUGUACUGCACAUGGGAAUGCAGUAGCAGGACCGGGACUAGGAUGC [(T1)-(M1)-(M2)-(T)''-(M)'-(T)'-(T2)_Design2_2/18/17],109,294,268,249,48.4

Sequence,apparent KD of MS2 coat protein (input ligand: arginine 13.2 mM) [nM],apparent KD of MS2 coat protein (input ligand: none) [nM],apparent KD of MS2 coat protein [1] [nM],apparent KD of MS2 coat protein [2] [nM],apparent KD of MS2 coat protein [3] [nM]
UUCAGCUAGUCGGCCGCCACUAUCUGAGGAUCACCCAGGUAAUCCUAACACUGCUUCGGCAGUGGUAGGACCGGGACUAGCUGAG,8.18,14.5,26.3,20,10.6
AUAUUAAUCGGAAGGAGCGGUACAUGAGGAUCACCCAUGUGGUAAGCUAGCAGAUCCCGUUACCAGGUAGGUCGCCGAGUUAUGA [XArg-B17],268,201,474,510,216
CUUAUAUAUAGAAGGAGCGACAUGAGGAUCACCCAUGUCUACCACGUCGAAAGACGCUCAUGUCAGGUAGGUCGCUAUAUAUAAG [Astros-Eli-mod3],42.5,152,138,172,120
AAACGUUGCUGCGAUACCAGACAUGAGGAUCACCCAUGUACCAAGAAAACGUACAUAAAUGUCCCUUGGCAGCGCAGCAACGAAA [MAT - Exclusion Theophlline B - Mod of Eli - D28],141,,511,,635
AGAUUCGACACGGCCGCCACUCGUGGAGGAUUUCCGAGUGUCGAACAUGAGGAUCACCCAUGUACGAGGACCGGGUGUUGAGUCU [XTryp B #14],21.1,,43.4,32.2,
ACAUGAGGAUCACCCAUGUAUCAACGGGAAGGAGCGCCAAACAAGGCAGGUAGGUCGCCCACAUGAGGAUCACCCAUGUGUUGGU [Exclusion Arginine A GF 29],20.6,21.4,25.8,24.9,21.1
AAGACUGGACAUAAGUCCAGUCAACCUGAAGGAGCGGGUGGGUGCCCAGGUAGGUCGCGGGAACAUGAGGAUCACCCAUGUAUAA [ArgAS 5 #BothOrNeither #OpenEnded],17.4,25.8,16.9,31.9,24.6
CGUACAUGAGGAUCACCCAUGUAGAGUGAUACCAGUCUACCUAGUGACCCUUGGCAGCACAUCGAUGGCAUCGGUGAUGCCGUUU [Atveti],70.1,,116,,117
UAUAUUGUGAUGGAUACCAGCAGAGAAAACGUUUAUCCUAACAUGAGGAUCACCCAUGUAUGCCCUUGGCAGCUGUUGUGGUAUA [8.P],34.7,,55.3,,38.6
GGCACACAUGAGGAUCACCCAUGUGGCGAUACCAGUUGAUGGUAAAACCCUUGGCAGCGCCAGUCACAUGCAGAUAGUUACUGAA [theeternabot_sameState_MS2_Theo_A_32],14.2,,19.4,,15.8
CAAUAAGUACCGGUCCUCAGAUCCUCAUGACGAGGACCGGUACGGCCGCCACUCGAAACAUGAGGAUCACCCAUGUAAUAAUAAU [Brourdmod01],15.3,,31.4,24.2,
CUACAUUUGUAGAAACCGGUCAACAAUAAUCGAGGACCGGUACGGCCGCCACUCGUAUAAUUUUAUACAUGAGGAUCACCCAUGU [Tryptophan A 3],13.7,,16.5,16.5,
CGGGACAUGAGGAUCACCCAUGUACGAUCCCGAGGACCGGUACGGCCGCCACUCGCUAGCGUUGAGUCGCGACUUUCAUAACUAA [theeternabot_sameState_MS2_Trp_A_27],36.7,,92.2,83.2,
ACAUGAGGAUCACCCAUGUAAAUAACGGAAGGAGCGUGCAAAAGCACAGGUAGGUCGCCGAUAUAAAUAUUGGGUAAUAUAUUAU [ExyArgA#1],25,34.2,41.5,28.2,28
AUACAUGAGGAUCACCCAUGUGAUGGCCGGCGAGGACCGGUACGGCCGCCACUCGUGAUCCGUCCUGAAAGCAAAGCUUCCAGCA [Terion],37.4,,273,437,
AAAAUCCUACUUGAGGAUCACCCAGGUGAAGGAGCGCCCGAAAGGGCAGGUAGGUCGCACCUGAGGAUCACCCUGGUAACCUAAA [ArgEX 9 #DoubleMS2 #OpenEnded],140,164,171,211,178
CUCCUGGGAGCGGCCGCCACUGGAGGCCUUGCGCGACAUGAGGAUCACCCAUGUUGUCCCGGCCUCAGGACCGGGUUCGCGCGAG [Same State - Tryptophan B Attempt #1],6.5,8.09,10.2,9.71,8.67
GGGUGCGGCACGGCCGCCACUGCGGUGGUGUGACAUGAGGAUCACCCAUGUUGUCAUGCGGCCCUUAGGACCGGGUGCCGUGCCC [#1 Exclusion - Tryptophan B Attempt #13 (HarryS)],39.5,33.7,60.9,62.4,43.8
